In article PMC8204860, “Structural basis of [sequence]‐mediated Rab1 activation” (The EMBO Journal, 2021):

Target: T1, Trs31 (Saccharomyces cerevisiae, UniProt Q03337 1-283)
T1 construct: Trs31, TRAPP core subunit, S. cerevisiae; also called Trs31 subunit
T1 sequence: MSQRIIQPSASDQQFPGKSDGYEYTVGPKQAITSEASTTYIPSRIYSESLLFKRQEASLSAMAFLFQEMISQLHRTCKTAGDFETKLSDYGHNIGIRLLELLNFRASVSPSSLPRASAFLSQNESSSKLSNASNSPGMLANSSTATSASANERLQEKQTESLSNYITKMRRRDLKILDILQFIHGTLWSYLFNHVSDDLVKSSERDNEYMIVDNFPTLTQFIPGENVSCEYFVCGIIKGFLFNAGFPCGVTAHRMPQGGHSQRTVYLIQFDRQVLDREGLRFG
Test: cryo-EM structure; TRAPPIII (after anion exchange) mixed 1:3 with Ypt1-7xHis, overnight at 4°C with calf intestinal alkaline phosphatase, complex isolated by SEC in 10 mM Tris pH 7.5, 350 mM NaCl, 1 mM DTT; 3.7 Å reconstruction
Conditions: both partners purified

binding result: binds
B1: Rab1/Ypt1 (Ypt1-7xHis) (natural protein)
chain: not shown
notes: Rab1/Ypt1, budding yeast GTPase; Made nucleotide-free in the complex by alkaline phosphatase. pGEX-6P backbone; gift from the T. Bretscher laboratory; also called GST-Ypt1-7xHis (before cleavage); source: E. coli Rosetta2, purified (glutathione resin, eluted by PreScission cleavage of GST); not shown: GST, N-terminal, cleaved
